Laboratory results taken from patent US20230030314A1, “Method for Diagnosing Cancer, Cancer Diagnosis Composition, Cancer Diagnosis Kit, Method for Evaluating State of Cancer, and Method for Screening Agents for Preventing and/or Treating Cancer” (Kyushu University, National University Corporation, priority 2019, published 2023).
Ends that are not written are not given here.

Biological target: T1, PKCα (Homo sapiens, UniProt P17252)
T1 construct: endogenous in cells; host or cells: KU-1, KU-7, T24, TCCSUP, UMUC-3 bladder cancer cells
Test: Phosphorylation of substrate peptide in bladder cancer-derived culture cells, MALDI-TOF MS
Type: biochemical
Conditions: bladder cancer-derived culture cells KU-1, KU-7, T24, TCCSUP, UMUC-3 (0.2 mg/ml cells); 30 μM peptide, 100 μM ATP, 37° C., 60 minutes
Method: An α-cyano-4-hydroxycinnamic acid (CHCA) matrix (10 mg/ml) was prepared in 50% water/acetonitrile and 0.1% TFA. This matrix and a sample were mixed in a ratio of 20:1. The resultant specimen/matrix mixture in a total volume of 1 μl was applied on a sample plate, and the resultant was crystallized by drying. In this example, Auto Flex Speed manufactured by Bruker was used in positive or negative mode. An acceleration voltage was set to 20 kV, and extraction delay time was set to 100 ns. Typically, 100 laser shots were averaged to improve a signal/noise ratio. All spectra were analyzed with Flex Analysis software (Bruker). A phosphorylation percentage was defined as an ionic strength ratio between a phosphorylated substance and a non-phosphorylated substance, and was calculated in accordance with existing description (Kang, J. -H. et al., (2007) J. Am. Soc. Mass Spectrom. 18, 106-112; and Kang J. -H. et al., (2007) J. Am. Soc. Mass Spectrom. 18, 1925-1931). In order to examine whether or not the PKCα specific substrate peptide could be phosphorylated by bladder cancer, culture cells derived from 5 different bladder cancers (KU-1, KU-7, T24, TCCSUP, and UMUC-3) were analyzed by MALDI-TOF MS. […] After performing incubation at 37° C. for 60 minutes, the resultant sample was analyzed by MALDI-TOF MS.

## FKKQGSFAKKK-NH2 [substrate peptide]
  phosphorylation percentage of the substrate peptide: high phosphorylation percentages
